In ChEMBL document CHEMBL2074368, “Kinetic analysis of calcein and calcein-acetoxymethylester efflux mediated by the multidrug resistance protein and P-glycoprotein” (Biochemistry, 1998) one finds Km data, which are given here for one protein.

Substrate in data set [1]: CC(=O)OCOC(=O)CN(CC(=O)OCOC(C)=O)Cc1c(OC(C)=O)ccc2c1Oc1c(ccc(OC(C)=O)c1CN(CC(=O)OCOC(C)=O)CC(=O)OCOC(C)=O)C21OC(=O)c2ccccc21
Put plainly: (§1) TP_TRANSPORTER: efflux in GLC4/ADR cells. In kind it is functional, cell-based, GLC-4/ADR.

Substrate in data set [2]: O=C(O)CN(CC(=O)O)Cc1cc2c(cc1O)Oc1cc(O)c(CN(CC(=O)O)CC(=O)O)cc1C21OC(=O)c2ccccc21
The description is as §1. It counts as functional, cell-based, GLC-4/ADR.

B1: Multidrug resistance-associated protein 1 (Homo sapiens) (protein)
chain: MALRGFCSADGSDPLWDWNVTWNTSNPDFTKCFQNTVLVWVPCFYLWACFPFYFLYLSRHDRGYIQMTPLNKTKTALGFLLWIVCWADLFYSFWERSRGIFLAPVFLVSPTLLGITMLLATFLIQLERRKGVQSSGIMLTFWLVALVCALAILRSKIMTALKEDAQVDLFRDITFYVYFSLLLIQLVLSCFSDRSPLFSETIHDPNPCPESSASFLSRITFWWITGLIVRGYRQPLEGSDLWSLNKEDTSEQVVPVLVKNWKKECAKTRKQPVKVVYSSKDPAQPKESSKVDANEEVEALIVKSPQKEWNPSLFKVLYKTFGPYFLMSFFFKAIHDLMMFSGPQILKLLIKFVNDTKAPDWQGYFYTVLLFVTACLQTLVLHQYFHICFVSGMRIKTAVIGAVYRKALVITNSARKSSTVGEIVNLMSVDAQRFMDLATYINMIWSAPLQVILALYLLWLNLGPSVLAGVAVMVLMVPVNAVMAMKTKTYQVAHMKSKDNRIKLMNEILNGIKVLKLYAWELAFKDKVLAIRQEELKVLKKSAYLSAVGTFTWVCTPFLVALCTFAVYVTIDENNILDAQTAFVSLALFNILRFPLNILPMVISSIVQASVSLKRLRIFLSHEELEPDSIERRPVKDGGGTNSITVRNATFTWARSDPPTLNGITFSIPEGALVAVVGQVGCGKSSLLSALLAEMDKVEGHVAIKGSVAYVPQQAWIQNDSLRENILFGCQLEEPYYRSVIQACALLPDLEILPSGDRTEIGEKGVNLSGGQKQRVSLARAVYSNADIYLFDDPLSAVDAHVGKHIFENVIGPKGMLKNKTRILVTHSMSYLPQVDVIIVMSGGKISEMGSYQELLARDGAFAEFLRTYASTEQEQDAEENGVTGVSGPGKEAKQMENGMLVTDSAGKQLQRQLSSSSSYSGDISRHHNSTAELQKAEAKKEETWKLMEADKAQTGQVKLSVYWDYMKAIGLFISFLSIFLFMCNHVSALASNYWLSLWTDDPIVNGTQEHTKVRLSVYGALGISQGIAVFGYSMAVSIGGILASRCLHVDLLHSILRSPMSFFERTPSGNLVNRFSKELDTVDSMIPEVIKMFMGSLFNVIGACIVILLATPIAAIIIPPLGLIYFFVQRFYVASSRQLKRLESVSRSPVYSHFNETLLGVSVIRAFEEQERFIHQSDLKVDENQKAYYPSIVANRWLAVRLECVGNCIVLFAALFAVISRHSLSAGLVGLSVSYSLQVTTYLNWLVRMSSEMETNIVAVERLKEYSETEKEAPWQIQETAPPSSWPQVGRVEFRNYCLRYREDLDFVLRHINVTINGGEKVGIVGRTGAGKSSLTLGLFRINESAEGEIIIDGINIAKIGLHDLRFKITIIPQDPVLFSGSLRMNLDPFSQYSDEEVWTSLELAHLKDFVSALPDKLDHECAEGGENLSVGQRQLVCLARALLRKTKILVLDEATAAVDLETDDLIQSTIRTQFEDCTVLTIAHRLNTIMDYTRVIVLDKGEIQEYGAPSDLLQQRGLFYSMAKDAGLV
In the case of B1, the Km worked out at 0.05 µM in data set [1] and 268 µM in data set [2].
